Earlier results, collected in US12377133B2 (Ascendis Pharma Growth Disorders A/S, priority 2019, dated 2025).
Bridges are numbered along the chain shown (N, C = ends). Where no end group is shown, it is not given here.

Settings: Lorget et al. 2012

In the case of “BMN111: recombinant CNP-39: 37 C-terminal amino acids of human CNP-53 plus glycine and proline added at the N-terminus (PGQEHPNARKYKGANKKGLSKGCFGLKLDRIGSMSGLGC; disulfide 23-39; chains of the INN, looked up)”, the half-life is given as 20 min.
